Measurements as given in patent US20260242478A1 (published 2026).
Where no end group is shown, it is not given here.

B1: Phage-3350 (Peptide-180 library peptide) (peptide)
peptide: GDIRCVPEWMCSGL
modifications: cysteine pairing not given here; also: fused to pIII of bacteriophage
notes: tested as crude clonal phage supernatant
B2: Phage-3362 (Peptide-180 library peptide) (peptide)
peptide: HDLSCVPRWMCDGF
notes: as for B1
B3: Phage-3337 (peptide)
peptide: LEVLCKPTWMCVGF
modifications: cysteine pairing not given here; also: fused to pIII of bacteriophage
notes: not shown: fused to pIII of the bacteriophage
B4: Phage-3356 (Peptide-180 library peptide) (peptide)
peptide: LSWHCIPEWMCAGF
modifications: cysteine pairing not given here; also: fused to pIII of bacteriophage
notes: as for B1
B5: Phage-3354 (Peptide-180 library peptide) (peptide)
peptide: GQMYCKPSWMCNGF
notes: as for B1
B6: Phage-3348 (peptide)
peptide: YEQRCVPVWMCEGF
notes: as for B3
B7: Phage-3352 (Peptide-180 library peptide) (peptide)
peptide: VDHVCRPIWMCIGF
notes: as for B1
B8: Phage-3353 (Peptide-180 library peptide) (peptide)
peptide: SEHFCRPAWMCTGF
notes: as for B1
B9: Phage-3359 (Peptide-180 library peptide) (peptide)
peptide: VESWCIPAWMCTGF
notes: as for B1
B10: Phage-3360 (Peptide-180 library peptide) (peptide)
peptide: FPVRCVPEWMCSGF
notes: as for B1
B11: Phage-3341 (peptide)
peptide: QYPVCKPAWMCEGF
modifications: cysteine pairing not given here; also: fused to pIII of bacteriophage
notes: as for B3
B12: Phage-3347 (peptide)
peptide: QSPMCKPDWMCLGF
modifications: cysteine pairing not given here; also: fused to pIII of bacteriophage
notes: as for B3
B13: Phage-3358 (Peptide-180 library peptide) (peptide)
peptide: VIIKCEPRWMCEGF
notes: as for B1
B14: Phage-3344 (peptide)
peptide: MERLCMPSWMCGGF
modifications: cysteine pairing not given here; also: fused to pIII of bacteriophage
notes: as for B3
B15: Phage-3346 (peptide)
peptide: SEYRCVPNWMCSGF
modifications: cysteine pairing not given here; also: fused to pIII of bacteriophage
notes: as for B3

Legend:
PSMA Fab (006 PSMA Fab) [1] = biological target: T1, PSMA Fab (006 PSMA Fab); assay: phage ELISA: clonal phage supernatant on biotinylated PSMA Fab captured on neutravidin plate, wells pre-incubated with PSMA antigen as competitor; anti-M13 HRP detection
T1 construct: also called Anti-PSMA Fab
Method: (§1) Clonal phage were harvested as crude supernatants and screened via standard ELISAs. […] Prior to the addition of clonal phage. wells were incubated with blocking buffer and PSMA antigen or blocking buffer alone. Without washing or aspirating, clonal phage supernatants were then added to the wells and incubated for a short time. Wells were then washed followed by detection of bound phage using a horse radish conjugated anti-M13 antibody.

PSMA Fab (006 PSMA Fab) [2] = biological target: T1, PSMA Fab (006 PSMA Fab); assay: phage ELISA: clonal phage supernatant on biotinylated PSMA Fab captured on neutravidin plate, blocking buffer alone; anti-M13 HRP detection;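 further: crude clonal phage supernatants added to wells preincubated with blocking buffer, incubated briefly, bound phage detected with a horseradish-conjugated anti-M13 antibody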
Method: as §1

PSMA Fab (006 PSMA Fab) [3] = biological target: T2, PSMA Fab (006 PSMA Fab) (biotinylated (site not stated)); assay: clonal phage ELISA on biotinylated PSMA Fab captured on neutravidin, anti-M13-HRP detection;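 further: crude clonal phage supernatants added to wells preincubated with PSMA antigen in blocking buffer or with blocking buffer alone, brief binding period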
T2 construct: also called Anti-PSMA Fab; anti-PSMA Fab

PSMA Fab (006 PSMA Fab) [4] = biological target: T2, PSMA Fab (006 PSMA Fab); assay: clonal phage ELISA on captured PSMA Fab, wells pre-incubated with PSMA antigen as competitor
Method: as §1

PSMA Fab [5] = biological target: T3, PSMA Fab (biotinylated (site not stated)); assay: clonal phage ELISA on biotinylated PSMA Fab captured on neutravidin plates, blocking buffer alone; anti-M13 HRP detection
T3 construct: Biotinylated PSMA Fab captured on neutravidin coated plates in the phage ELISA; also called Anti-PSMA Fab; 006 PSMA Fab

PSMA Fab [6] = biological target: T3, PSMA Fab; assay: clonal phage ELISA on captured PSMA Fab, wells pre-incubated with PSMA antigen as competitor; anti-M13 HRP detection
Method: as §1

Binder | phage binding ELISA signal (PSMA Fab (006 PSMA Fab) [1]) | phage binding ELISA signal (PSMA Fab (006 PSMA Fab) [2]) | Phage binding ELISA signal, Anti-PSMA Fab (PSMA Fab (006 PSMA Fab) [3]) | phage binding ELISA signal (Anti-PSMA Fab with PSMA) (PSMA Fab (006 PSMA Fab) [4]) | further results
B1 | 0.0749 | 1.82 |  |  | 
B2 | 0.0671 | 1.82 |  |  | 
B3 |  |  | 1.84 | 0.078 | 
IGVVCKPLWMCHGF [Phage-3327] |  |  |  |  | phage binding ELISA signal (PSMA Fab [5]): 1.85; phage binding ELISA signal (PSMA Fab [6]): 0.0971
B4 | 0.07 | 1.82 |  |  | 
B5 | 0.0788 | 1.82 |  |  | 
IEFLCKPMWMCNGF [Phage-3333] |  |  |  |  | phage binding ELISA signal (PSMA Fab [5]): 1.84; phage binding ELISA signal (PSMA Fab [6]): 0.0658
IDRMCKPVWMCEGF [Phage-3334] |  |  |  |  | phage binding ELISA signal (PSMA Fab [5]): 1.84; phage binding ELISA signal (PSMA Fab [6]): 0.123
B6 |  |  | 1.82 | 0.0675 | 
B7 | 0.0934 | 1.82 |  |  | 
B8 | 0.0801 | 1.82 |  |  | 
B9 | 0.0794 | 1.82 |  |  | 
B10 | 0.0748 | 1.82 |  |  | 
B11 |  |  | 1.83 | 0.0971 | 
VAPICRPSWMCEWL [Phage-3328] |  |  |  |  | phage binding ELISA signal (PSMA Fab [5]): 1.84; phage binding ELISA signal (PSMA Fab [6]): 0.0837
B12 |  |  | 1.83 | 0.0728 | 
B13 | 0.068 | 1.82 |  |  | 
B14 |  |  | 1.83 | 0.0822 | 
B15 |  |  | 1.83 | 0.0791 | 
